This is an account of results in the supplement of paper PMC7877785.

The data set is described as follows: self-splicing fitness, log relative to wild type (ln ratio); higher = more splicing; Tetrahymena group I intron in knt gene, E. coli kanamycin selection, DiMSum; sequences stand for … in CUCUCU…GGAGGGAAAAGUUAUCAGGCAUGCACCUGGUAGCUAGUCUUUAAACCAAUAGAUUGCAUCGGUUUAAAAGGCAAGACCGUCAAAUUGCGGGAAAGGGGUCAACAGCCGUUCAGUACCAAGUCUCAGGGGAAACUUUGAGAUGGCCUUGCAAAGGGUAUGGUAAUAAGCUGACGGACAUGGUCCUAACCACGCAGCCAAGUCCUAAGUCAACAGAUCUUCUGUUGAUAUGGAUGCAGUUCACAGACUAAAUGUCGGUCGGGGAAGAUGUAUUCUUCUCAUAAGAUAUAGUCGGACCUCUCCUUAAUGGGAGCUAGCGGAUGAAGUGAUGCAACACUGGAGCCGCUGGGAACUAAUUUGUAUGCGAAAGUAUAUUGAUUAGUUUUGGAGUACUCGUGGUCG
The gist of the method:
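A randomised library covering all eight P1ex-region intron nucleotides was built with the intron in the knt kanamycin-resistance gene on pET-22b(+) and held in E. coli BL21(DE3). Cells were grown overnight at 37°C or 30°C on LB agar, with or without 25 μg/mL kanamycin, plus 100 μg/mL carbenicillin, 50 μM IPTG and 0.2% rhamnose, and pooled colonies were amplicon-sequenced on an Illumina HiSeq 2500. DiMSum fitness is the error-weighted combination of wild-type-normalised replicate fold changes, kanamycin versus none.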

± gives the uncertainty stated by the source.

Consider AACUAGCAAUAUUACGUGCU, for which the “self-splicing fitness (ln)” value runs as follows: (30 °C) -2.24 ± 0.083; (37 °C) -1.97 ± 0.12.
AACUAGCAAUAUUACGUGGG: the “self-splicing fitness (ln)” value (30 °C) was -3.79 ± 0.23 and the “self-splicing fitness (ln)” value (37 °C) is -2.38 ± 0.17.
The corresponding values for AAGAAGCAAUAUUACGAAGG are -3.33 ± 0.38 and -2.01 ± 0.36.
As for AAGAAGCAAUAUUACGACUA, the “self-splicing fitness (ln)” value amounted to 0.152 ± 0.072 (30 °C) and 0.144 ± 0.1 (37 °C).
Consider AAGAAGCAAUAUUACGCACG, for which the “self-splicing fitness (ln)” value reads like this: (30 °C) -1.26 ± 0.082; (37 °C) -0.749 ± 0.12.
As for AAGAAGCAAUAUUACGCAUA, the “self-splicing fitness (ln)” value reads like this: (30 °C) -1.29 ± 0.11; (37 °C) -0.0901 ± 0.12.
Take AAGAAGCAAUAUUACGCUCG: the “self-splicing fitness (ln)” value is -0.487 ± 0.078 (30 °C) and -0.257 ± 0.12 (37 °C).
Take AAGAAGCAAUAUUACGCUUU: the “self-splicing fitness (ln)” value by setting is: (30 °C) -4.1 ± 0.42; (37 °C) -2.58 ± 0.21.
Turning to AAGAAGCAAUAUUACGGCCA, the “self-splicing fitness (ln)” value (30 °C) was -0.587 ± 0.097 and the “self-splicing fitness (ln)” value (37 °C) was -0.00293 ± 0.12.
In the case of AAGAAGCAAUAUUACGGCGG, the “self-splicing fitness (ln)” value (30 °C) was -0.903 ± 0.1 and the “self-splicing fitness (ln)” value (37 °C) was -0.664 ± 0.12.
For AAGAAGCAAUAUUACGGGCA, in that order: -0.698 ± 0.092 and -0.225 ± 0.11.
AAGAAGCAAUAUUACGGGGC: the “self-splicing fitness (ln)” value (37 °C) is -2.95 ± 0.26.
As for AAGAAGCAAUAUUACGGUUU, the “self-splicing fitness (ln)” value reads like this: (30 °C) -1.44 ± 0.068; (37 °C) -0.413 ± 0.087.
Turning to AAGAAGCAAUAUUACGUCAG, the “self-splicing fitness (ln)” value is -2.66 ± 0.2 (30 °C) and -1.91 ± 0.16 (37 °C).
As to AAGAAGCAAUAUUACGUCAU, the “self-splicing fitness (ln)” value is -1.81 ± 0.075 (30 °C) and -1.04 ± 0.1 (37 °C).
Regarding AAGAAGCAAUAUUACGUCGA, the “self-splicing fitness (ln)” value was -0.754 ± 0.097 (30 °C) and 0.0801 ± 0.14 (37 °C).
Take AAGAAGCAAUAUUACGUUAA: the “self-splicing fitness (ln)” value was -2.77 ± 0.16 (30 °C) and -0.841 ± 0.11 (37 °C).
The corresponding values for AAGAAGCAAUAUUACGUUUG are -2.45 ± 0.12 and -2.26 ± 0.18.
The corresponding values for AAGCAGCAAUAUUACGAAUG are -3.74 ± 0.18 and -2.45 ± 0.16.
Turning to AAGCAGCAAUAUUACGACCU, the “self-splicing fitness (ln)” value reads like this: (30 °C) 0.301 ± 0.08; (37 °C) 0.149 ± 0.11.
As for AAGCAGCAAUAUUACGAUAA, the “self-splicing fitness (ln)” value was -1.69 ± 0.12 (30 °C) and -1.16 ± 0.13 (37 °C).
Take AAGCAGCAAUAUUACGAUAU: the “self-splicing fitness (ln)” value (30 °C) is -0.287 ± 0.076 and the “self-splicing fitness (ln)” value (37 °C) was -0.0114 ± 0.099.
The corresponding values for AAGCAGCAAUAUUACGAUCU are -0.0506 ± 0.075 and 0.801 ± 0.09.
Regarding AAGCAGCAAUAUUACGCAUU, the “self-splicing fitness (ln)” value (30 °C) is -2.49 ± 0.12 and the “self-splicing fitness (ln)” value (37 °C) was -1.23 ± 0.12.
For the sequence AAGCAGCAAUAUUACGCCGC, the “self-splicing fitness (ln)” value (37 °C) was -2.37 ± 0.45.
AAGCAGCAAUAUUACGGCUA: the “self-splicing fitness (ln)” value is -0.14 ± 0.066 (30 °C) and 0.0975 ± 0.086 (37 °C).
Take AAGCAGCAAUAUUACGGUGG: the “self-splicing fitness (ln)” value is, setting by setting: (30 °C) -3.64 ± 0.18; (37 °C) -1.98 ± 0.17.
As for AAGCAGCAAUAUUACGUAAC, the “self-splicing fitness (ln)” value is, setting by setting: (30 °C) -2.67 ± 0.11; (37 °C) -1.94 ± 0.14.
Consider AAGCAGCAAUAUUACGUGCA, for which the “self-splicing fitness (ln)” value is -0.892 ± 0.065 (30 °C) and -0.453 ± 0.084 (37 °C).
The corresponding values for AAGCAGCAAUAUUACGUUCG are -1.98 ± 0.089 and -0.509 ± 0.1.
For the sequence AAGCAGCAAUAUUACGUUGG, the “self-splicing fitness (ln)” value was -3.77 ± 0.17 (30 °C) and -1.45 ± 0.11 (37 °C).
AAGGAGCAAUAUUACGAAAG: for the setting “30 °C”, the “self-splicing fitness (ln)” value was -2.93 ± 0.21.
As to AAGGAGCAAUAUUACGACCG, the “self-splicing fitness (ln)” value (30 °C) was -2.16 ± 0.29.
Consider AAGGAGCAAUAUUACGACUG, for which the “self-splicing fitness (ln)” value by setting is: (30 °C) -1.75 ± 0.16; (37 °C) -1.05 ± 0.18.
For AAGGAGCAAUAUUACGACUU, in that order: -1.12 ± 0.086 and -1.26 ± 0.1.
For the sequence AAGGAGCAAUAUUACGAGGA, the “self-splicing fitness (ln)” value reads like this: (30 °C) -3.21 ± 0.46; (37 °C) -1.95 ± 0.38.
In the case of AAGGAGCAAUAUUACGAUUA, the “self-splicing fitness (ln)” value (37 °C) is -1.96 ± 0.28.
AAGGAGCAAUAUUACGCCUA: the “self-splicing fitness (ln)” value is -1.21 ± 0.15 (30 °C) and -1.35 ± 0.14 (37 °C).
Consider AAGGAGCAAUAUUACGCCUG, for which the “self-splicing fitness (ln)” value is -2.1 ± 0.28 (30 °C) and -0.484 ± 0.44 (37 °C).
The corresponding values for AAGGAGCAAUAUUACGCGAC are -2.44 ± 0.41 and -1.54 ± 0.35.
Regarding AAGGAGCAAUAUUACGCUUA, the “self-splicing fitness (ln)” value is, setting by setting: (30 °C) -1.49 ± 0.17; (37 °C) -1.1 ± 0.16.
With AAGGAGCAAUAUUACGGCAC, the “self-splicing fitness (ln)” value is -1.23 ± 0.47 (30 °C) and -1.62 ± 0.46 (37 °C).
As for AAGGAGCAAUAUUACGGGGC, the “self-splicing fitness (ln)” value was -3.81 ± 0.22 (30 °C) and -2.34 ± 0.16 (37 °C).
Take AAGGAGCAAUAUUACGGUCG: the “self-splicing fitness (ln)” value (30 °C) was -2.96 ± 0.22.
As to AAGGAGCAAUAUUACGUAUC, the “self-splicing fitness (ln)” value (37 °C) is -2.8 ± 0.44.
Consider AAGGAGCAAUAUUACGUCCA, for which the “self-splicing fitness (ln)” value is -1.29 ± 0.16 (30 °C) and -0.459 ± 0.16 (37 °C).
For AAGGAGCAAUAUUACGUCCC, in that order: 0.0851 ± 0.15 and -1.06 ± 0.23.
Regarding AAGGAGCAAUAUUACGUCGA, the “self-splicing fitness (ln)” value (30 °C) is -1.74 ± 0.2 and the “self-splicing fitness (ln)” value (37 °C) is -1.89 ± 0.2.
Regarding AAGGAGCAAUAUUACGUCGG, the “self-splicing fitness (ln)” value was -3.13 ± 0.19 (30 °C) and -2.74 ± 0.33 (37 °C).
On to AAGGAGCAAUAUUACGUCGU, for which the “self-splicing fitness (ln)” value is, setting by setting: (30 °C) -2.73 ± 0.11; (37 °C) -0.982 ± 0.12.
The corresponding values for AAGUAGCAAUAUUACGAAAU are -2.3 ± 0.2 and -0.59 ± 0.18.
For the sequence AAGUAGCAAUAUUACGACGC, the “self-splicing fitness (ln)” value by setting is: (30 °C) -0.792 ± 0.12; (37 °C) 0.204 ± 0.14.
As to AAGUAGCAAUAUUACGAGGC, the “self-splicing fitness (ln)” value (30 °C) was -3.44 ± 0.29.
As to AAGUAGCAAUAUUACGAUAA, the “self-splicing fitness (ln)” value reads like this: (30 °C) -1.36 ± 0.12; (37 °C) -1.09 ± 0.13.
For AAGUAGCAAUAUUACGAUUA, the “self-splicing fitness (ln)” value (30 °C) is -0.56 ± 0.1 and the “self-splicing fitness (ln)” value (37 °C) is -0.688 ± 0.08.
Take AAGUAGCAAUAUUACGAUUC: the “self-splicing fitness (ln)” value is -0.923 ± 0.12 (30 °C) and -0.577 ± 0.15 (37 °C).
AAGUAGCAAUAUUACGCACA: the “self-splicing fitness (ln)” value was -0.522 ± 0.088 (30 °C) and -0.00649 ± 0.14 (37 °C).
The corresponding values for AAGUAGCAAUAUUACGCACG are -1.5 ± 0.13 and 0.587 ± 0.13.
As to AAGUAGCAAUAUUACGCGGA, the “self-splicing fitness (ln)” value is, setting by setting: (30 °C) -2.09 ± 0.18; (37 °C) -1.04 ± 0.15.
The corresponding values for AAGUAGCAAUAUUACGCGUC are -1.96 ± 0.12 and -2 ± 0.19.
For AAGUAGCAAUAUUACGCUUA, in that order: -0.794 ± 0.14 and -0.587 ± 0.14.
For AAGUAGCAAUAUUACGGCGG, the “self-splicing fitness (ln)” value is, setting by setting: (30 °C) -2.56 ± 0.17; (37 °C) -0.842 ± 0.15.
AAGUAGCAAUAUUACGGGAA: the “self-splicing fitness (ln)” value (30 °C) was -2.74 ± 0.2 and the “self-splicing fitness (ln)” value (37 °C) is -2.8 ± 0.23.
For AAGUAGCAAUAUUACGGGCA, in that order: -1.25 ± 0.088 and -0.149 ± 0.098.
The corresponding values for AAGUAGCAAUAUUACGGUAG are -2.85 ± 0.22 and -2.72 ± 0.2.
Consider AAGUAGCAAUAUUACGGUCA, for which the “self-splicing fitness (ln)” value by setting is: (30 °C) -0.974 ± 0.094; (37 °C) -0.354 ± 0.1.
As for AAGUAGCAAUAUUACGGUUG, the “self-splicing fitness (ln)” value is, setting by setting: (30 °C) -2.78 ± 0.1; (37 °C) -2.16 ± 0.11.
The corresponding values for AAGUAGCAAUAUUACGUAGC are -3.25 ± 0.33 and -2.3 ± 0.31.
As for AAGUAGCAAUAUUACGUAUC, the “self-splicing fitness (ln)” value was -2.36 ± 0.14 (30 °C) and -1.15 ± 0.11 (37 °C).
Turning to AAGUAGCAAUAUUACGUGAG, the “self-splicing fitness (ln)” value (30 °C) is -1.57 ± 0.048 and the “self-splicing fitness (ln)” value (37 °C) is -0.575 ± 0.066.
With AAGUAGCAAUAUUACGUGGC, the “self-splicing fitness (ln)” value is -2.22 ± 0.18 (30 °C) and -3.29 ± 0.39 (37 °C).
For AAGUAGCAAUAUUACGUGGG, in that order: -3.49 ± 0.2 and -3.24 ± 0.23.
Turning to AAGUAGCAAUAUUACGUUUC, the “self-splicing fitness (ln)” value reads like this: (30 °C) -3.93 ± 0.33; (37 °C) -2.03 ± 0.21.
On to AAGUAGCAAUAUUACGUUUG, for which the “self-splicing fitness (ln)” value was -2.41 ± 0.13 (30 °C) and -1.49 ± 0.13 (37 °C).
As for AAUAAGCAAUAUUACGAAGU, the “self-splicing fitness (ln)” value is -3.44 ± 0.18 (30 °C) and -1.94 ± 0.17 (37 °C).
In the case of AAUAAGCAAUAUUACGAAUA, the “self-splicing fitness (ln)” value (30 °C) is -1.54 ± 0.13 and the “self-splicing fitness (ln)” value (37 °C) was -1.62 ± 0.15.
For the sequence AAUAAGCAAUAUUACGACUU, the “self-splicing fitness (ln)” value (30 °C) is -0.182 ± 0.065 and the “self-splicing fitness (ln)” value (37 °C) stood at 0.451 ± 0.094.
